The subject of the data set is MS2 coat protein. As to the kind of experiment: apparent KD of MS2 coat protein; designed switch direction (-1 OFF switch, 1 ON switch): -1; higher = weaker reporter binding. Summed up: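 Designed RNA switches were transcribed on Illumina chips by stalled E. coli RNA polymerase and titrated with SNAP-549-labelled MS2 coat protein from 0.7 or 1.5 nM, doubling to 3 µM. Step length ran from 0.8–1.5 h at the lowest concentration to 10–20 min at the highest. The apparent KD is the median over clusters for each design, from curve-fitted normalised cluster fluorescence.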

Setting [1] is: Eterna round: R95, input ligand: FMN 200 uM.
Setting [2] is: Eterna round: R95, input ligand: microRNA oligo, concentration not stated.
Where [3] appears, read: Eterna round: R95, input ligand: none.
The mark [4] stands for this setting: input ligand: microRNA oligo, concentration not stated.

From the supplement of paper PMC9170038 come the findings set out here.

“UAGGUGUGAGGAUAUGGUAAAGAUAAGAUGAUAAAAGAACUCCAGAAGGCACAUGAGGAUCACCCAUGUAGAUG [Mat - Exclusion 4 - Mod of JL - D34] (puzzle: Exclusion 4)”: the “apparent KD of MS2 coat protein” value worked out at 62.9 nM under setting [1], 22.8 nM under setting [2] and 25.8 nM under setting [3].
Regarding “UGAGCUACAGGAUAUAUAUGGCGACCGUGAGGUCGAAGGUUACAUGAGGAUCACCCAUGUAGAAGGGUAGUUCU [Mat - Exclusion 2 - JL Mod - D17] (Eterna round: R97, puzzle: Exclusion 2)”, the “apparent KD of MS2 coat protein” value (input ligand: FMN 200 uM) amounted to 225 nM and the “apparent KD of MS2 coat protein” value (input ligand: none) is 86.2 nM.
Consider “UGAUGACAUGAGGAUCACCCAUGUCAGGAUAUUGAGCUUGAGCUGAAAAGUUCGAGUUCGAGAAGGGACUGUCG [-29.6, -26.6 kcal, A 28%, 1] (Eterna round: R97, puzzle: Exclusion 1)”, for which the “apparent KD of MS2 coat protein” value runs as follows: (input ligand: FMN 200 uM) 28.2 nM; (input ligand: none) 29 nM.
In the case of “GCCUCACUUGAGGAUCACCCAAGUCAGGAUAUUCACUGAACUGCGUAACAGCUCGGCCGAAGAAGGGAUUCGGG [Leisatat] (Eterna round: R97, puzzle: Exclusion 1)”, the “apparent KD of MS2 coat protein” value (input ligand: FMN 200 uM) came to 80.8 nM and the “apparent KD of MS2 coat protein” value (input ligand: none) worked out at 78.5 nM.
As to “CGCUGUUGAGGAUAUGGGCGUGGUUACAUGAGGAUCACCCAUGUGGUGUCGCGCGUGGGUCCAGAAGGCGGCGGUG [-31.8, -28.5 kcal, 16% A] (Eterna round: R97, puzzle: Exclusion 5)”, the “apparent KD of MS2 coat protein” value runs as follows: (input ligand: FMN 200 uM) 33.5 nM; (input ligand: none) 17.5 nM.
For “GCAGUAUGAGUUAGGAUAUGAUGAUUUUUUUUAUUUCAGAAGGAACUUGAGGAUCACCCAAGUUAAGAUUUGGU [JR_BMEx4_Sub068] (Eterna round: R97, puzzle: Brourd's mod of Exclusion 4)”, the “apparent KD of MS2 coat protein” value stood at 45.6 nM (input ligand: FMN 200 uM) and 24.6 nM (input ligand: none).
On to “AACAGGACAGGAUAUACAUGAGGAUCACCCAUGUAGGAAACAAGCAGAGUACCAAAAAGUAGAAGGGUCAUGGA [Ruby 30] (Eterna round: R96, puzzle: Exclusion 3)”, for which the “apparent KD of MS2 coat protein” value under setting [4] came to 53.6 nM.
Take “GACUGGACGUGGUCUGGUUACAUGAGGAUCACCCAUGUAGGUCUAAGAACAUGCCUUUUGUACGCUCGUCUUAUAUA [JR_SV3TOV1_Sub065] (puzzle: Sensor v3, turn-off variant 1)”: the “apparent KD of MS2 coat protein” value is, setting by setting: under setting [1], 37.9 nM; under setting [2], 20.7 nM; under setting [3], 39.6 nM.
Turning to “AGAUUGCAUGAGGAUAUCGUAUUAGAUAUAAUGCGAGAAGGCAUGACAUGAGGAUCACCCAUGUAGUGUUGGGA [JR_Ex6_Sub012] (Eterna round: R97, puzzle: Exclusion 6)”, the “apparent KD of MS2 coat protein” value by setting is: (input ligand: FMN 200 uM) 75.1 nM; (input ligand: none) 52.6 nM.
For “UUUAUGUGAGGAUAUGCGGGCGGGCGUGAAAAUGUUUGUUUGUAGAAGGUACAUGAGGAUCACCCAUGUAGUGG [-22, -21.6 kcal, 24% A] (Eterna round: R97, puzzle: Exclusion 4)”, in that order: 180 nM and 57.2 nM.
On to “UGAUUGUUUACCAGGUUAUACAUGAGGAUCACCCAUGUAGAUCCUACGUGCGCGUUGUACCGCUCGUCUUAUUGCCA [Sensor-V1 #79] (Eterna round: R97, puzzle: Sensor, turn-off variant 1)”, for which the “apparent KD of MS2 coat protein” value reads like this: (input ligand: FMN 200 uM) 19.5 nM; (input ligand: none) 21.3 nM.
In the same order, the values of “CUGACGUCAGGAUAUAGCAUACACUGACUAGAUGGACAGGGUUAGAAGGGACAUGAGGAUCACCCAUGUGGUUU [Eternabot (L1) Solution 81] (Eterna round: R97, puzzle: Exclusion 4)” are 56.3 nM and 50.5 nM.
“AAGUAUAGAGGAUAUAGUGAGUACUACAUGAGGAUCACCCAUGUUCUUCGAAACGUAUUUCUAGAAGGCUGAUAAA [EX-5 Malc#22] (puzzle: Exclusion 5)”: the “apparent KD of MS2 coat protein” value amounted to 35.3 nM under setting [1], 28.2 nM under setting [2] and 29.2 nM under setting [3].
As for “UUUUAACAUGAGGAUCACCCAUGUGAGGAUAUCGAAAUUUAUAUUAAUAUUAUUAUAUCGAGAAGGCACAUUUU [JMF 40] (puzzle: Exclusion 1)”, the “apparent KD of MS2 coat protein” value under setting [2] came to 86.6 nM.
Turning to “GAAGAUCGAGUUAGGAUAUGAUUACUAUCCGAAAAUCAGAAGGAACUUGAGGAUCACCCAAGUAAAGAAGAAAU [JR_BMEx4_Sub051] (Eterna round: R97, puzzle: Brourd's mod of Exclusion 4)”, the “apparent KD of MS2 coat protein” value (input ligand: FMN 200 uM) came to 22.9 nM and the “apparent KD of MS2 coat protein” value (input ligand: none) was found to be 16.5 nM.
For “CUAUCCAGAGGAUAUACGAGAUCGAAAGAUCGGCGAUCCCUACAUGAGGAUCACCCAUGUAGAAGGCUGGAUAG [Mod 17 - Jieux - Exclusion 2] (Eterna round: R97, puzzle: Exclusion 2)”, in that order: 83.8 nM and 19.7 nM.
As to “AGAUUAAAAGUAAGGAUAUGCUUCCGGAAACGGAGGCAGAAGGUACAUGAGGAUCACCCAUGUUAAACUAAUUU [Explosion 5 - Jieux - Brourd's mod of Exclusion 4] (Eterna round: R97, puzzle: Brourd's mod of Exclusion 4)”, the “apparent KD of MS2 coat protein” value is, setting by setting: (input ligand: FMN 200 uM) 21.2 nM; (input ligand: none) 15.3 nM.
On to “AAGAGUGCAGGAUAUACUUGGUAGGGCGGGUGGAUGAAGUGACAUGAGGAUCACCCAUGUAGAAGGGCAGAGAG [JR_Exclu2_Sub055] (puzzle: Exclusion 2)”, for which the “apparent KD of MS2 coat protein” value runs as follows: under setting [1], 24.6 nM; under setting [2], 21.4 nM; under setting [3], 25.7 nM.
For “AGCUAAAUAGGAUAUGCCCGGGAUAACAUGAGGAUCACCCAUGUGACCGAUUCAUGUCCUGCAGAAGGAUUUGGGA [Mod of ViennaUCT 5 - Jieux - Exclusion 5] (Eterna round: R97, puzzle: Exclusion 5)”, the “apparent KD of MS2 coat protein” value worked out at 17 nM (input ligand: FMN 200 uM) and 13 nM (input ligand: none).
“AAGUAGACAGUGAGGAUAUAGGUGGAAUGACCCAUUUAGAAGGUACAUGAGGAUCACCCAUGUGGGUAAUGUCG [Brourd's EX4 #27] (Eterna round: R97, puzzle: Brourd's mod of Exclusion 4)”: the “apparent KD of MS2 coat protein” value was found to be 146 nM (input ligand: FMN 200 uM) and 149 nM (input ligand: none).
Regarding “ACAUGUCAUCUAGGAUAUUGGACACAUGAGGAUCACCCAUGUACCCGGAGGCUUUACUAUGAGUUCGAGAAGGAGAUGUACAUG [Ex NG2 #72] (Eterna round: R96, puzzle: Exclusion NG 2)”, the “apparent KD of MS2 coat protein” value runs as follows: (input ligand: FMN 200 uM) 133 nM; under setting [4], 38.6 nM; (input ligand: none) 57.9 nM.
“AUUUUGUCAGGAUAUUGUUAGUUUAGUUGUUUGUAUUAGUUCGAGAAGGGACAUGAGGAUCACCCAUGUGAUUU [Ex4 #74] (Eterna round: R97, puzzle: Exclusion 4)”: the “apparent KD of MS2 coat protein” value stood at 135 nM (input ligand: FMN 200 uM) and 114 nM (input ligand: none).
“UUGGUUAUCUAUGGAAGUAACAUGAGGAUCACCCAUGUAUGUCUUGUUUUUUGUUCGUCAUAGGCCUUUUGUUUGGA [JR_SV3TOV1_Sub023] (puzzle: Sensor v3, turn-off variant 1)”: the “apparent KD of MS2 coat protein” value by setting is: under setting [1], 24.9 nM; under setting [2], 24.9 nM; under setting [3], 30.3 nM.
Turning to “AAGUCGAGCGUGAGGAUAUUGACCGGACGACCCAUCGAGAAGGCACAUGAGGAUCACCCAUGUGAUUCAGCUCA [Brourd's EX4 #52] (Eterna round: R97, puzzle: Brourd's mod of Exclusion 4)”, the “apparent KD of MS2 coat protein” value is 23.2 nM (input ligand: FMN 200 uM) and 15.5 nM (input ligand: none).
For “GGCUUACAUGAGGAUCACCCAUGUCAGGAUAUAGAACGAUGGCGGAACGCCAUCGCCGCUAGAAGGGACCGGUG [Eternabot (Original) Solution 25] (Eterna round: R97, puzzle: Exclusion 1)”, the “apparent KD of MS2 coat protein” value (input ligand: FMN 200 uM) was found to be 142 nM and the “apparent KD of MS2 coat protein” value (input ligand: none) is 78 nM.
Take “AGUCAGGCGGUAGGAUAUCCAAAUCGAGUGACCCUCUCAUAACAUGAGGAUCACCCAUGUCGGUGGGAGAAGGGCCGUAAGGCA [Mat - Exclusion NG 2 - Mod of JL - D64] (Eterna round: R96, puzzle: Exclusion NG 2)”: the “apparent KD of MS2 coat protein” value was determined as 33 nM (input ligand: FMN 200 uM), 16.4 nM under setting [4] and 30.9 nM (input ligand: none).
“UAUUAUAAUGUAGGAUAUCUGCACGUGUAGUGCAGAGAAGGACAUGAGGAUCACCCAUGUAUAGUAGCUUCGGCUACAUUAUUU [ENG1-B3] (Eterna round: R96, puzzle: Exclusion NG 1)”: the “apparent KD of MS2 coat protein” value stood at 90.5 nM (input ligand: FMN 200 uM), 61.8 nM under setting [4] and 71.2 nM (input ligand: none).
Consider “GCAGGUUAAGUCAGGAUAUACCUAUGGAUACAUAGGUAGAAGGGACAUGAGGAUCACCCAUGUGCCUCGCCUGC [Fiskers BMX 4 - 58] (puzzle: Brourd's mod of Exclusion 4)”, for which the “apparent KD of MS2 coat protein” value under setting [2] was found to be 15.4 nM.
For “UUUAAUUUUUUUUUUUUACAAGCUUUUUGCUCGUCUUAUACAUGAGGAUCACCCAUGUGGGUAAGAGAUAAAUUAUC [JMF 13] (puzzle: Sensor v3, turn-off variant 2)”, the “apparent KD of MS2 coat protein” value runs as follows: under setting [1], 24.9 nM; under setting [2], 36.3 nM; under setting [3], 27.8 nM.
In the same order, the values of “CUGAGCAGACGGAGAUCCAACAUGAGGAUCACCCAUGUCUCAAAAGCUCUUUGCUCGUCUUAUCCUCCUCUGUUCUC [Leriedor] (puzzle: Sensor v3, turn-off variant 1)” are 31.5 nM, 333 nM and 30.1 nM.
